{"source": "patent US20190352376A1", "binders": {"B1": {"name": "F211-11H12 (antibody, V domains shown)", "VL": "DIVMSQSPSSLAVSVGEKVTMSCKSSQSLLNSRNQKNHLAWYQQKPGQSPKLLIYWASTRESGVPDRFTGDGSGTDFTLTISSVKAEDLAVYYCQQYYTYRTFGGGTKLEIK", "VH": "DVQLQESGPGLVKPSQSLSLTCSVTGYSITSDYYWNWIRQFPGNKLEWMAYIGYDGTKNYNPSLKNRISITRDTSKNQFFLKLNSVTTDDTATYYCTRDRANWDDYFDYWGQGTTLTVSS"}}, "target": "peptide-conjugate (Example 1; lactosyl-Ser-…-Cys coupled to KLH) (influenza virus)", "note": "Several values for one entry are separate records, joined by “and”; a condition that tells them apart may be missing. Equal values may be shown once."}
{"binder": "B1", "values": [{"measurement": "EC50 (read off the curve)", "value": "0.03 µg/mL and 0.02 µg/mL"}]}
